These results are taken from patent publication US20240228595A1.

For this test, the target named is SARS-COV-2 Omicron BA.1.1 spike on HIV-1 based pseudovirus (SARS-CoV-2 Omicron BA.1.1) (UniProt P0DTC2). The test is described as follows: cell-based or functional assay.

The substance S309 (Sotrovimab) (antibody) had a pseudovirus neutralization, IC50 of 0.533 µg/mL.
